From patent US20110243928A1

Assays:
16 mer peptide 41 = assay: 16 mer peptide ELISA
16 mer peptide 40 = target: T1, 16 mer peptide 40; assay: 16 mer peptide ELISA
T1 sequence (peptide, N-terminal biotin; C-terminal amide): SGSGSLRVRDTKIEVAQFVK

Chain of 16 mer peptide 41 (peptide, as listed by the source limits assumed): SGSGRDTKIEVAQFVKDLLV

absorbance at 490 nm (16 mer peptide 41): 0.058 A490
absorbance at 490 nm (16 mer peptide 40): 0.06 A490
B1: monoclonal antibody 6A1 (antibody, IgG1, V domains shown)
VH: EIQLQQSVAELVRPGASVRLSCTASGFYIKDTYMHWVIQRPEQGLEWIGTIDPANGNTKYVPKFQGKATITADTSSNTAYLRLSSLTSEDTAIYYCARSIYDDYHYDDYYAMDYWGQGTSVTVSS
VL: DVLMTQTPLSLPVSLGDQASISCRSSQNIVHINGNTYLEWYLQKPGQSPKLLIYKISDRFSGVPDRFSGSGSGTDFTLKISRVEAEDLGVYYCFQGSHVPWTFGGGTKLEIK
